Results on one protein are retold here after patent US20260166131.

In this data set the target is custom-expressed human TDP-43 (Nanjing GenScript Biotechnology Co., Ltd., C134WHE160-2/P5HF001), Q13148.
Sequence of custom-expressed human TDP-43 (Nanjing GenScript Biotechnology Co., Ltd., C134WHE160-2/P5HF001), Q13148 (Q13148 whole entry): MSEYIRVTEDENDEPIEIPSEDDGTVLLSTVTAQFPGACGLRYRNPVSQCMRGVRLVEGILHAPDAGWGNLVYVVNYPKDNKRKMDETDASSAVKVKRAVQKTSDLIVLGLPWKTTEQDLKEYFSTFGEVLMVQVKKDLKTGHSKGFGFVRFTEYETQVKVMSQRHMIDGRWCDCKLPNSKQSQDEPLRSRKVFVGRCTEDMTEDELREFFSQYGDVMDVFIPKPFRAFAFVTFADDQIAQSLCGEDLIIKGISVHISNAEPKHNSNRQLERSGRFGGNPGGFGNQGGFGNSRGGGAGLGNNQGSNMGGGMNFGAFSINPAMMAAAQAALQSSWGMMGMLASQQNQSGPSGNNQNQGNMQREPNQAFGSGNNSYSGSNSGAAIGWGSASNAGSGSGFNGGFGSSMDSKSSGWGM

B1: human plasminogen purified from human donor plasma (protein)
chain: KVYLSECKTGNGKNYRGTMSKTKNGITCQKWSSTSPHRPRFSPATHPSEGLEENYCRNPDNDPQGPWCYTTDPEKRYDYCDILECEEECMHCSGENYDGKISKTMSGLECQAWDSQSPHAHGYIPSKFPNKNLKKNYCRNPDRELRPWCFTTDPNKRWELCDIPRCTTPPPSSGPTYQCLKGTGENYRGNVAVTVSGHTCQHWSAQTPHTHNRTPENFPCKNLDENYCRNPDGKRAPWCHTTNSQVRWEYCKIPSCDSSPVSTEQLAPTAPPELTPVVQDCYHGDGQSYRGTSSTTTTGKKCQSWSSMTPHRHQKTPENYPNAGLTMNYCRNPDADKGPWCFTTDPSVRWEYCNLKKCSGTEASVVAPPPVVLLPDVETPSEEDCMFGNGKGYRGKRATTVTGTPCQDWAAQEPHRHSIFTPETNPRAGLEKNYCRNPDGDVGGPWCYTTNPRKLYDYCDVPQCAAPSFDCGKPQVEPKKCPGRVVGGCVAHPHSWPWQVSLRTRFGMHFCGGTLISPEWVLTAAHCLEKSPRPSSYKVILGAHQEVNLEPHVQEIEVSRLFLEPTRKDIALLKLSSPAVITDKVIPACLPSPNYVVADRTECFITGWGETQGTFGAGLLKEAQLPVIENKVCNRYEFLNGRVQSTELCAGHLAGGTDSCQGDSGGPLVCFEKDKYILQGVTSWGLGCARPNKPGVYVRVSRFVTWIEGVMRNN
Consider B1, for which the “Western blot and band density of TDP-43 after 3 h at 37 C with plasminogen in normal mouse brain homogenate” value is “the amounts of TDP-43 monomer, HMW and LMW in the plasminogen group are significantly lower than those in the vehicle control group”.
